Where “and” joins values, the source holds several entries; their conditions need not be identical. Equal values may be shown once. Read-outs that look alike come from different tables or passages of the source.
Legend:
[1] = biological target: neutralizing antibody CR3022
[2] = biological target: neutralizing antibody CR3022; remark: listed apart in the source
ACE2-hFc (human) [3] = biological target: ACE2-hFc (human) (UniProt Q9BYF1)
ACE2-hFc (human) [4] = biological target: ACE2-hFc (human) (UniProt Q9BYF1); remark: listed apart in the source
[5] = biological target: neutralizing antibody CR3022; test: SPR (ProteOn XPR36), CR3022 captured on Protein G
[6] = biological target: neutralizing antibody CR3022; remark: listed apart in the source
ACE2-hFc (human) [7] = biological target: ACE2-hFc (human) (UniProt Q9BYF1); remark: listed apart in the source
ACE2-hFc (human) [8] = biological target: ACE2-hFc (human) (UniProt Q9BYF1); remark: listed apart in the source
[9] = biological target: neutralizing antibody CR3022; test: SPR, immobilized CR3022
[10] = biological target: neutralizing antibody CR3022; test: SPR, CR3022 captured on Protein G, tagless pInCV02R as analyte (FIG. 11D)
[11] = biological target: neutralizing antibody CR3022; remark: listed apart in the source

Chain of ACE2-hFc (human) (Q9BYF1 18-740 limits assumed): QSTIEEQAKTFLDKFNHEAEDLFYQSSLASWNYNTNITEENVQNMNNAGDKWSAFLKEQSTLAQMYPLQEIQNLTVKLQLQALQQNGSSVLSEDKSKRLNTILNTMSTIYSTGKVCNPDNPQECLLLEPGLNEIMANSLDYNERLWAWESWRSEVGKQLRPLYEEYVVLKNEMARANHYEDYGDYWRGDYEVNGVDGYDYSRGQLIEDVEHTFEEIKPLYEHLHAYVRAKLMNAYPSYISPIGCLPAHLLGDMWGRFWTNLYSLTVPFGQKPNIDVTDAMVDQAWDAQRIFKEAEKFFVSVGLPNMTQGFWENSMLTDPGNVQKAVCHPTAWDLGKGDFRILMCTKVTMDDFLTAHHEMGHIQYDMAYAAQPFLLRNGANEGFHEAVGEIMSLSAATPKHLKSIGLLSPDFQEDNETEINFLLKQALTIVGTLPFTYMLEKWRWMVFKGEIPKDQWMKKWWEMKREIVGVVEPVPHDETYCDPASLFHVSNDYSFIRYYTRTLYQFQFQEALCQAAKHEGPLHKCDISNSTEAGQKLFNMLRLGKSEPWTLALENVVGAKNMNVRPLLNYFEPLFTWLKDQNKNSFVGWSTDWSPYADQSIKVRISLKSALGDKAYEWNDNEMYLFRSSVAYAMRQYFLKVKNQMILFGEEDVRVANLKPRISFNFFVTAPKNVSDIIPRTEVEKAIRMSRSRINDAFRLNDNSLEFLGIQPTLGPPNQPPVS

MsDPS2-SpyTag-mRBD-SpyCatcher conjugate was tested, and the kon [1] was 4.2e+06 M⁻¹ s⁻¹ and the kon [2] was > 1e+06 M⁻¹ s⁻¹.
With “MsDPS2-SpyTag-mRBD-SpyCatcher conjugate (other; other documents disagree on this pair)” the kon (ACE2-hFc (human) [3]) was > 1e+06 M⁻¹ s⁻¹ and the kon (ACE2-hFc (human) [4]) was 2.3e+06 M⁻¹ s⁻¹.
Work on “mInCV01R (SARS CoV-2 RBD) having EIS at the N-terminal (from UniProt P0DTC2 331-532) (ligand)” yielded a Kd [5] of 1.3 nM.
With “mInCV21R (SARS CoV-2 hCMP-RBD) having EIS at the N-terminal (ligand)” the kon [1] was 310000 M⁻¹ s⁻¹ and the Kd [6] was < 1 nM.
“mInCV21R (SARS CoV-2 hCMP-RBD) having EIS at the N-terminal (ligand; other documents disagree on this pair)” was tested, and the Kd (ACE2-hFc (human) [7]) was 0.21 nM, the koff (ACE2-hFc (human) [7]) was 8.2e-05 s⁻¹ and the kon (ACE2-hFc (human) [7]) was 400000 M⁻¹ s⁻¹. The kon (ACE2-hFc (human) [4]) was 200000 M⁻¹ s⁻¹ and the Kd (ACE2-hFc (human) [8]) was < 1 nM.
Work on “mInCV26R (SARS CoV-2 RBD with hCMP at the C-terminal and EIS at the N-terminal) (ligand)” yielded a kon [1] of 480000 M⁻¹ s⁻¹.
For “mInCV26R (SARS CoV-2 RBD with hCMP at the C-terminal and EIS at the N-terminal) (ligand; other documents disagree on this pair)”, the kon (ACE2-hFc (human) [4]) was 360000 M⁻¹ s⁻¹.
With “mInCV29R (SARS CoV-2 RBD with GlyIZ at C-terminal and EIS at the N-terminal) (ligand)” the Kd [1] was 4.8 nM, the koff [1] was 0.00097 s⁻¹ and the kon [1] was 200000 M⁻¹ s⁻¹. For the same substance, the Kd [9] was 3 nM and 5 nM.
“mInCV29R (SARS CoV-2 RBD with GlyIZ at C-terminal and EIS at the N-terminal) (ligand; other documents disagree on this pair)” showed a Kd (ACE2-hFc (human) [4]) of 3 nM, a koff (ACE2-hFc (human) [4]) of 0.0004 s⁻¹ and a kon (ACE2-hFc (human) [4]) of 130000 M⁻¹ s⁻¹.
For “pInCV02R (SARS CoV-2 RBD N-1 (332-532)) (from UniProt P0DTC2 332-532) (ligand)”, the Kd [10] was 30 nM and the Kd [11] was 29.5 nM.
